Consider one molecule from patent publication US20060252692A1, “Inhibitors for use in hemostasis” (ZymoGenetics, Inc., priority 2002, published 2006).

The subject of series [1] is serotonin-contracted rat aortic sections. Nature of the series: Relaxation of serotonin-induced rat aortic ring contractions. Set-up: species or system Sprague-Dawley rats. The procedure: Male, Sprague-Dawley rats, approximately 3 months of age, were lightly anesthetized with CO2 and then decapitated. The thoracic aorta was then rapidly removed and placed in a modified Kreb's-Henseleit buffer (NaCl, 118.2 mM; KCl, 4.6 mM; CaCl2, 2.5 mM; MgSO4, 1.2 mM; NaHCO3, 24.8 mM; KH2PO4, 1.2 mM; and glucose, 10.0 mM). From each rat, four 2-3 mm aortic ring sections were cut after discarding the rough end of the aorta. In some experiments the endothelium was denuded, prior to cutting ring sections, by rubbing the lumen of the aorta along a 21 gauge needle. Denudation of the endothelium was verified by the addition of the acetylcholine analogue, carbachol, prior to determining zsig37 concentration-dependent responses.
The rings were fixed and connected to force displacement transducers in oxygenated (95% O2, 5% CO2), jacketed, glass organ baths kept at 30° C. in modified Kreb's-Henseleit buffer, pH 7.4. Resting tension was set at 1 gm, and continually re-adjusted to 1 gm over a one-hour incubation period. Fresh oxygenated modified Kreb's-Henseleit buffer was added to the baths every fifteen minutes during the resting incubation period. At the end of the one-hour incubation, the ring sections were contracted by the addition of 10 μM serotonin. After maximum contraction had been reached, approximately 15-20 minutes after the addition of the serotonin, cumulative concentration response curves for zsig37 were constructed. Zsig37 was added to 5 ml baths in volumes from 5 up to 150 μls, for final concentrations ranging from 1 ng/ml up to 40 μg/ml. Viability of the ring sections was verified at the end of the concentration response by the addition of forskolin (2.5 μM or 25 μM) or nitroglycerin (22 μM).

The subject of series [2] is norepinepherin contracted aortic rings. Nature of the series: Vasodilatation of norepinepherin contracted aortic rings. Set-up: species or system Sprague Dawley rats. The settings on record: 323, 162, and 81 ng/ml. The method, then: The effect of zsig37 on vasodilatation of aortic rings was measured according to the procedures of (Dainty et al., J. Pharmacol. 100:767 (1990), and Rhee et al., Neurotox. 16:179 (1995)). Briefly, aortic rings 4 mm in length were taken from 4 month old Sprague Dawley rats and placed in modified Krebs solution (118.5 mM NaCl, 4.6 mM KCl, 1.2 mM MgSO4.7H2O, 1.2 mM KH2PO4, 2.5 mM CaCl2.2H2O, 24.8 mM NaHCO3 and 10 mM glucose). The rings were then attached to an isometric force transducer (Radnoti Inc.; Monrovia, Calif.) and the data recorded with a Ponemah physiology platform (Gould Instrument systems, Inc.; Valley View, Ohio) and placed in a 10 ml tissue bath oxygenated (95% O2, 5% CO2) modified Krebs solution. The tissues were adjusted to one gram resting tension and allowed to stabilize for one hour before testing.
The rings were tested by 5 μl additions of […] norepinepherin (Sigma Chemical Co.; St. Louis, Mo.) to a final concentration of about 1×10^−9 M and Carbachol, a muscarinic acetylcholine agonist (Sigma Chemical Co.) at 2×10^−7 M final, to test the integrity of the rings. After each test, the rings were washed three times with fresh buffer, five minutes between washes and allowed to rest one hour. […] Zsig37 was then added to one, two, or three of the four baths, without flushing, and tension on the rings was recorded and compared to the control rings. […]

The test system of a further series is template bleeding time. Also noted: species or system Macaca fascicularis. The settings on record: cynomolgus monkey, in vivo. From the text:
In order to evaluate one aspect of the safety of zsig37 and its effect on template bleeding time, a pre-clinical model in Macaca fascicularis was used. Time to cessation of bleeding from standardized incisions on the animal's forearm, a procedure previously described by Wu, et al., Blood, 2002, 99:3623-3628, was employed to assess the effect of zsig37 on bleeding.
Methods. Five female and twelve male, Macaca fascicularis weighing 2.3 to 4.6 kg were used as test subjects on this project. The animals were immobilized with ketamine hydrochloride (Phoenix Scientific) administered intramuscularly at approximately 10 mg/kg. Each animal was examined, and the animal determined to be acceptable for the study. The right forearm, abdomen, ventral neck and inguinal area were shaved free of hair. The animal was transported to the surgical suite (University of Washington Regional Primate Research Center), positioned inside a heated air circulation system and placed onto isoflurane (Abbott Laboratories) inhalation anesthesia delivered through positive pressure ventilation via an endotracheal tube. […] The time to cessation of bleeding was determined and recorded for each animal. Bleeding times were determined for each animal prior to any treatment, after low molecular weight heparin (Lovenox™, Rhone Polenc, Inc.) treatment and after zsig37 treatment.

B1: zsig37: adipocyte complement related protein homolog, polypeptide of SEQ ID NO:2, inhibits collagen-mediated platelet activation and the complement pathway (protein, listed as Homo sapiens)
chain: MGSRGQGLLLAYCLLLAFASGLVLSRVPHVQGEQQEWEGTEELPSPPDHAERAEEQHEKYRPSQDQGLPASRCLRCCDPGTSMYPATAVPQINITILKGEKGDRGDRGLQGKYGKTGSAGARGHTGPKGQKGSMGAPGERCKSHYAAFSVGRKKPMHSNHYYQTVIFDTEFVNLYDHFNMFTGKFYCYVPGLYFFSLNVHTWNQKETYLHIMKNEEEVVILFAQVGDRSIMQSQSLMLELREQDQVWVRLYKGERENAIFSEELDTYITFSGYLVKHATEP
Regarding B1, in series [1], the “time to plateau of relaxation response after addition” value was 3 to 5 min and the “time to relaxation after addition of each concentration” value was in the range of 30 to 60 s. Also, in series [1] (10 μM serotonin), the “concentration at which relaxation was first observed” value was “above 100 ng/ml”. For the same molecule, the “vasorelaxation of serotonin-contracted aortic sections” value in series [1] (10 μM serotonin, with and without an intact endothelium, 1 ng/ml up to 40 μg/ml) is on record as “concentration-dependent vasorelaxation”. In addition, in series [2], the “dose response of vasodilatation” value is listed as “dose response could not be determined”. Further, in series [2] (two of seven controls dilated, Fisher exact P 0.045), the rings vasodilated is 10 of the 12. Also, the “template bleeding time vs control (1.0 mg/kg BSA)” value in the series with template bleeding time was “not statistically different”.
